Residue numbers refer to the chain shown, from its start. In names and notes the source's numbering stands.
T1: human LAG-3 expressed on cells (human, UniProt P18627 23-525)
T1 sequence: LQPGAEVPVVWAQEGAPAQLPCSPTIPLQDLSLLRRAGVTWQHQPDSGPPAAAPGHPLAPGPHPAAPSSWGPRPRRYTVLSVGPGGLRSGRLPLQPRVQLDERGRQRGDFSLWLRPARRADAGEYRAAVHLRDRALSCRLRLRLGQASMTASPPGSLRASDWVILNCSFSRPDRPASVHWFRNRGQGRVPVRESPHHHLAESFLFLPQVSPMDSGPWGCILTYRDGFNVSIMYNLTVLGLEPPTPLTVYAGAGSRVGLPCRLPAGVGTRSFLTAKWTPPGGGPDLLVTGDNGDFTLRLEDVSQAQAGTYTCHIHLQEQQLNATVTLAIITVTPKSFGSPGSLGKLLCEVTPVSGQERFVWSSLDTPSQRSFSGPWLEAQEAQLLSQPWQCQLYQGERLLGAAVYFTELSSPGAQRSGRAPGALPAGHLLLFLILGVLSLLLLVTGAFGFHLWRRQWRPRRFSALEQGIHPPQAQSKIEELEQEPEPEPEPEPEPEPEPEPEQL

T2: recombinant human LAG-3-Fc (human, UniProt P18627 23-450)
T2 construct: also called human LAG-3 (R&D Systems cat no. 2319-L3); LAG3 antigen
T2 sequence: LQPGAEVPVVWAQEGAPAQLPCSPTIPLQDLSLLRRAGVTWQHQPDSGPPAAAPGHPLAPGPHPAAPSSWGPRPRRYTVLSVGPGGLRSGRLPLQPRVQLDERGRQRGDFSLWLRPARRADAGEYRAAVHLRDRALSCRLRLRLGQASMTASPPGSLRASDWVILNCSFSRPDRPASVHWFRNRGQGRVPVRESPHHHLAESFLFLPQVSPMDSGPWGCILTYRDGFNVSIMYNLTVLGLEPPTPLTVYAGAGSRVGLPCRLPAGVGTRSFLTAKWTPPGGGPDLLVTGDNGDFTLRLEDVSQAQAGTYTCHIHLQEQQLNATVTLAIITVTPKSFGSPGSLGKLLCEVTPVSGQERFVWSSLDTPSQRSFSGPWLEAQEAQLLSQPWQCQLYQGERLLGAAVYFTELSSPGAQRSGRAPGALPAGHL

B1: VH 1.2-6GS-VH 1.2 (VHH)
chain: EVQLVESGGGVVRPGGSLRLSCAASGFTFDDYGMSWVRQAPGKGLEWVSGIHWNGGSTGYADSVKGRFTISRDNAKNSLYLQMNSLRAEDTALYYCARIPREDCSSASCYTDAIDFWGQGTMVTVSSGGGGSGGGGSGGGGSGGGGSGGGGSGGGGSEVQLVESGGGVVRPGGSLRLSCAASGFTFDDYGMSWVRQAPGKGLEWVSGIHWNGGSTGYADSVKGRFTISRDNAKNSLYLQMNSLRAEDTALYYCARIPREDCSSASCYTDAIDFWGQGTMVTVSSAAAHHHHHH
notes: It is built here from its name, the (Gly4Ser)n linker definition and the statement that the constructs used carried C-terminal AAA-His6; also called 1.2-6GS-1.2; LAG3 bivalent
B2: 2.77-6GS-1.1-6GS-1.1 (bispecific antibody)
chain: EVQLVESGGGLVKPGGSLRLSCAASGFTFSDSSMTWMRQAPGKGLEWVSYISSGGGVKFYTDSVKGRFTISRDNAKNSLYLQMNSLRAEDTAVYYCAREAPLRLGESPHDAFDISGQGTMVTVSSGGGGSGGGGSGGGGSGGGGSGGGGSGGGGSEVQLVESGGGVVRPGGSLRLSCSASGFTFDDYGMSWVRQAPGKGLEWVSGIHWNGGNSGYADSVKGRFTISRDNAKNSLYLQMNSLRAEDTALYYCARIPREDCSSASCYTDAIDFWGPGTMVTVSSGGGGSGGGGSGGGGSGGGGSGGGGSGGGGSEVQLVESGGGVVRPGGSLRLSCSASGFTFDDYGMSWVRQAPGKGLEWVSGIHWNGGNSGYADSVKGRFTISRDNAKNSLYLQMNSLRAEDTALYYCARIPREDCSSASCYTDAIDFWGPGTMVTVSSAAAHHHHHH
B3: VH1.1-8GS-VH1.1-His6 (VHH)
chain: EVQLVESGGGVVRPGGSLRLSCSASGFTFDDYGMSWVRQAPGKGLEWVSGIHWNGGNSGYADSVKGRFTISRDNAKNSLYLQMNSLRAEDTALYYCARIPREDCSSASCYTDAIDFWGPGTMVTVSSGGGGSGGGGSGGGGSGGGGSGGGGSGGGGSGGGGSGGGGSEVQLVESGGGVVRPGGSLRLSCSASGFTFDDYGMSWVRQAPGKGLEWVSGIHWNGGNSGYADSVKGRFTISRDNAKNSLYLQMNSLRAEDTALYYCARIPREDCSSASCYTDAIDFWGPGTMVTVSSAAAHHHHHH
B4: VH1.1-12GS-VH1.1-His6 (VHH)
chain: EVQLVESGGGVVRPGGSLRLSCSASGFTFDDYGMSWVRQAPGKGLEWVSGIHWNGGNSGYADSVKGRFTISRDNAKNSLYLQMNSLRAEDTALYYCARIPREDCSSASCYTDAIDFWGPGTMVTVSSGGGGSGGGGSGGGGSGGGGSGGGGSGGGGSGGGGSGGGGSGGGGSGGGGSGGGGSGGGGSEVQLVESGGGVVRPGGSLRLSCSASGFTFDDYGMSWVRQAPGKGLEWVSGIHWNGGNSGYADSVKGRFTISRDNAKNSLYLQMNSLRAEDTALYYCARIPREDCSSASCYTDAIDFWGPGTMVTVSSAAAHHHHHH
B5: VH1.1-4GS-VH1.1-His6 (VHH)
chain: EVQLVESGGGVVRPGGSLRLSCSASGFTFDDYGMSWVRQAPGKGLEWVSGIHWNGGNSGYADSVKGRFTISRDNAKNSLYLQMNSLRAEDTALYYCARIPREDCSSASCYTDAIDFWGPGTMVTVSSGGGGSGGGGSGGGGSGGGGSEVQLVESGGGVVRPGGSLRLSCSASGFTFDDYGMSWVRQAPGKGLEWVSGIHWNGGNSGYADSVKGRFTISRDNAKNSLYLQMNSLRAEDTALYYCARIPREDCSSASCYTDAIDFWGPGTMVTVSSAAAHHHHHH
B6: VH 2.77 (VHH)
VHH: EVQLVESGGGLVKPGGSLRLSCAASGFTFSDSSMTWMRQAPGKGLEWVSYISSGGGVKFYTDSVKGRFTISRDNAKNSLYLQMNSLRAEDTAVYYCAREAPLRLGESPHDAFDISGQGTMVTVSS
B7: VH 2.92 (VHH)
VHH: B6 VHH with S32E, T61A
notes: Human VH single domain antibody against PD-1
B8: VH 2.80 (VHH)
VHH: B6 VHH with T61A
notes: as for B7
B9: VH 1.2 (VHH)
VHH: EVQLVESGGGVVRPGGSLRLSCAASGFTFDDYGMSWVRQAPGKGLEWVSGIHWNGGSTGYADSVKGRFTISRDNAKNSLYLQMNSLRAEDTALYYCARIPREDCSSASCYTDAIDFWGQGTMVTVSS
notes: Human VH single domain antibody against LAG-3; It is VH 1.1 with S23A, P119Q, N57S and S58T; also called variant 2
B10: variant 3 of VH 1.1 (VHH)
VHH: B9 VHH with Q119P
notes: 4
B11: variant 7 of VH 1.1 (VHH)
VHH: B9 VHH with Y32F, S57N, S106V, S108A, Q119P
notes: 4
B12: variant 8 of VH 1.1 (VHH)
VHH: B9 VHH with D30N, S57N, T58S, A107T, Q119P
notes: 4
B13: variant 4 of VH 1.1 (VHH)
VHH: B9 VHH with N54I, S57N, T58S, Q119P
notes: 4
B14: variant 5 of VH 1.1 (VHH)
VHH: B9 VHH with D30N, Y32F, S57N, Q119P
notes: 4
B15: variant 9 of VH 1.1 (VHH)
VHH: B9 VHH with G56D, Y95H, Q119P
notes: 4
B16: variant 6 of VH 1.1 (VHH)
VHH: B9 VHH with Y32F, G55S, G56D, S57I, G59A, Q119P
notes: 4
B17: variant 1 of VH 1.1 (VHH)
VHH: B9 VHH with S57N, T58S, Q119P

These binders were tested against T3, Rhesus monkey LAG-3 (used as cynomolgus LAG-3) (Rhesus monkey (called cynomolgus in the …)) (assay: BLI (Octet); cynomolgus LAG-3 immobilised on ARG2 sensors, 1:1 fit).
T3 construct: extracellular domain
Experimental: (§1) Binding kinetics for multi-valent and bispecific VH were also measured in real-time bio-layer interferometer based biosensor Octet (ForteBio). […] All the binding studies were performed in HBS-ET Octet kinetics buffer. Biosensors were washed in Octet kinetics buffer in between different steps. […] The contact time for each of the association steps was 150 seconds and the dissociation step was 400 seconds. […] To compare the constructs, kinetic association (kₐ) and dissociation (kd) rate constants were determined by processing and fitting the data to a 1:1 binding model using ForteBio Analysis software.

| Kd | koff | kon | Binder |
| --- | --- | --- | --- |
| 0.536 nM | 0.000148 s⁻¹ | 276000 M⁻¹ s⁻¹ | B1 |

The binders below were run against T1, human LAG-3 expressed on cells (assay: cell-based or functional assay).

| EC50 (M), NFAT-Luciferase Reporter Gene assay (LAG-3:MHCII) | Binder |
| --- | --- |
| 6.6e-09 M | B2 |
| 5.4e-09 M | B3 |
| 3.3e-09 M | B4 |
| 1.4e-09 M | B5 |

These binders were tested against T2, recombinant human LAG-3-Fc (assay: BLI (Octet); human LAG-3-Fc captured on protein G biosensors, 1:1 fit).
Experimental: as §1

| Kd | koff | kon | Binder |
| --- | --- | --- | --- |
| 0.744 nM | 0.00112 s⁻¹ | 1.5e+06 M⁻¹ s⁻¹ | B1 |

Each binder was assayed against T4, human PD-1 expressed on cells (human, UniProt Q15116 25-288) (assay: cell-based or functional assay).
T4 sequence (Q15116 25-288 limits assumed): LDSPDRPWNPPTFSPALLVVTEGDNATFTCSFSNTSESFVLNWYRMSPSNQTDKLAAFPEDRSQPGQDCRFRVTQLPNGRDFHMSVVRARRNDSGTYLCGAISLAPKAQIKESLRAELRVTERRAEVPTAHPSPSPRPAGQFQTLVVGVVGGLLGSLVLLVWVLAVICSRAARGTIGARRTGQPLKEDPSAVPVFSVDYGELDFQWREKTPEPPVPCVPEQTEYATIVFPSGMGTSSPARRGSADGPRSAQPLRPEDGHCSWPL

| EC50 (M), NFAT-Luciferase Reporter Gene assay (PD-1:PD-L1) | Binder |
| --- | --- |
| 9.7e-09 M | B6 |
| 1.4e-08 M | B7 |
| 3.7e-08 M | B2 |

Molecular target: T4, human PD-1 expressed on cells
Test: cell-based or functional assay
Remark: another data set of the same source

| potency in the PD-1:PD-L1 NFAT-luciferase reporter assay, fold lower than monoclonal antibodies | Binder |
| --- | --- |
| > 30 fold | B2 |

The binders below were run against T4, human PD-1 expressed on cells (assay: FMAT inhibition of human Fc tagged PD-L1 binding to CHO human PD-1 cells).
Experimental: All reagents and serially diluted VH were prepared in FMAT assay buffer. […] Plates were incubated for 2 hours at room temperature then fluorescence measured in the FL2 (502 nm-537 nm) and FL5 (677-800 nm) channels on the Mirrorball plate reader (TTP) following excitation at 488 nm and 640 nm. Data was expressed as a % of the total binding control (i.e. % control) after subtraction of the background signal determined from the non-specific binding control wells.

| IC50 | Binder |
| --- | --- |
| 1.82 nM | B8 |
| 2.8 nM | B7 |

Each binder was assayed against T2, recombinant human LAG-3-Fc (assay: BLI (Octet); human LAG-3-Fc amine-coupled to biosensor, VH in solution, 1:1 fit).
Experimental: Binding kinetics were measured in real-time bio-layer interferometer based biosensor Octet (ForteBio). […] All the binding studies were performed in HBS-ET Octet kinetics buffer. Biosensors were washed in Octet kinetics buffer in between different steps. A seven point, two-fold dilution series of each Humabody® VH was made with a top concentration of 1.6 μM. The contact time for each of the association steps was 150 seconds and the dissociation step was 300-400 seconds. Kinetic association (kₐ) and dissociation (kd) rate constants were determined by processing and fitting the data to a 1:1 binding model using ForteBio Analysis software.

| Kd | koff | kon | Binder |
| --- | --- | --- | --- |
| 72.1 nM | 0.00179 s⁻¹ | 24800 M⁻¹ s⁻¹ | B9 |
| 34.5 nM | 0.000899 s⁻¹ | 26100 M⁻¹ s⁻¹ | B10 |
| 35.5 nM | 0.000847 s⁻¹ | 23900 M⁻¹ s⁻¹ | B11 |
| 13 nM | 0.00126 s⁻¹ | 96700 M⁻¹ s⁻¹ | B12 |
| 8.41 nM | 0.000479 s⁻¹ | 56900 M⁻¹ s⁻¹ | B13 |
| 7.9 nM | 0.000517 s⁻¹ | 65500 M⁻¹ s⁻¹ | B14 |
| 53.2 nM | 0.00383 s⁻¹ | 72100 M⁻¹ s⁻¹ | B15 |
| 31.3 nM | 0.00343 s⁻¹ | 110000 M⁻¹ s⁻¹ | B16 |
| 35.5 nM | 0.000912 s⁻¹ | 27000 M⁻¹ s⁻¹ | B17 |
